Assay results reported in US20250144229A1, “CONJUGATE OF ANTIBODY-ERIBULIN OR DERIVATIVE THEREOF, INTERMEDIATE THEREOF, PREPARATION METHOD THEREFOR, PHARMACEUTICAL COMPOSITION THEREOF AND USE THEREOF” (MEDLINK THERAPEUTICS (SUZHOU) CO., LTD., priority 2022, published 2025).
Where “and” joins values, the source holds several entries; their conditions need not be identical. Equal values may be shown once. Where a name gives a salt, the structure may show the parent alone. Read-outs that look alike come from different tables or passages of the source. Blank lines part the entries; values can stand above or below the molecule they belong to.

Experiments:
SW480 = experiment: Inhibitory activity of ADC on cell viability in vitro (CCK8), SW480; assay type: cell-based; conditions: Homo sapiens, SW480, 168 h, 7 days incubation
Protocol: (§1) HT29, NCI-H358 (HT29 and NCI-H358 are B7H3 positive tumor cells), SW480, A375, A549, and Calu-3 (Calu-3 is B7H3 negative tumor cells) tumor cells were digested by trypsin using conventional methods. Cells in the tube were collected and counted, then resuspended in the corresponding assay medium (containing 2% FBS), and added to a 96-well plate at 2000 to 5000 cells/well. 100 μL of ADC diluted in 2% FBS medium was added to the 96-well plate, with 3-fold serial dilution at an initial concentration of 150 µg/mL (12 concentration gradients). The plate was incubated at 37° C. under 5% CO2 for 7 days. 20 μL of CCK8 reagent was then added to each well, and the reaction was carried out for 2 to 6 hours. The plate was read on a microplate reader (detection wavelength: 450 nm). The test results are shown in Table 3-1, Table 3-2, and FIGS. 7A to 7E.

A375 = experiment: Inhibitory activity of ADC on cell viability in vitro (CCK8), A375; assay type: cell-based; conditions: Homo sapiens, A-375, 168 h, 7 days incubation
Protocol: as §1

A549 = experiment: Inhibitory activity of ADC on cell viability in vitro (CCK8), A549; assay type: cell-based; conditions: Homo sapiens, A549, 168 h, 7 days incubation
Protocol: as §1

HT29 = experiment: Inhibitory activity of ADC on cell viability in vitro (CCK8), HT29; assay type: cell-based; conditions: Homo sapiens, HT-29, 168 h, 7 days incubation, B7H3 positive tumor cells
Protocol: as §1

[1] = cited from earlier work
[2] = target: T1, human B7H3-4IgG-His protein (Homo sapiens, UniProt Q5ZPR3); experiment: ELISA protein affinity assay of anti-B7H3 antibody, human protein; assay type: binding; conditions: coated protein
T1 construct: amino acids at positions 27 to 461 (Uniport protein No. Q5ZPR3-1) of human 4Ig B7H3; 6xHis (C); made in house; host or cells: HEK293F (transient, PTT5 vector)
T1 sequence (Q5ZPR3 27-461): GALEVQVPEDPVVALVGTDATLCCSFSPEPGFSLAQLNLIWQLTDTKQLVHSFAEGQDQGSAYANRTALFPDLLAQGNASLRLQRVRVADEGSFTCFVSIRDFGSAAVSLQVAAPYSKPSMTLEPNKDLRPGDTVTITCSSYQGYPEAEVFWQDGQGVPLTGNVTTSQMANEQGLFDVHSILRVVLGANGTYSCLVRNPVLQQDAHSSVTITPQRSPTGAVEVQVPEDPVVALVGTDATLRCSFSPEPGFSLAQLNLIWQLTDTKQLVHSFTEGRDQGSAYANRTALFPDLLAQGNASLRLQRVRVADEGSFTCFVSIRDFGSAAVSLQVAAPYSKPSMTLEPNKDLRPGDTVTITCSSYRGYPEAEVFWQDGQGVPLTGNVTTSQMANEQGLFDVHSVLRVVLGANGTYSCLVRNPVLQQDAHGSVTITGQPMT
Protocol: The plate was washed five times with PBST. […] The absorbance was measured at 450 nm.

MCF-7 tumor cells = experiment: Cell affinity assay of anti-B7H3 antibody by FACS, MCF-7; assay type: binding; conditions: flow cytometry
Protocol: (§2) B7H3 protein is highly expressed in a variety of solid tumor cells. The affinity of B7H3 full human antibody to tumor cells was tested by FACS. Specific experimental procedures: MCF-7 breast cancer cells, A549 human non-small cell lung cancer cells, and PC3 human prostate cancer cells grown to logarithmic phase were digested by trypsin, and resuspended to 5*10^5 cells/mL in PBS buffer containing 2% BSA. 100 μL of cell suspension was added to a 96-well plate. […] 100 μL of antibody suspension was then added into the 96-well plate and mixed homogeneously. The plate was incubated at 4° C. for 1 hour, washed twice with pre-cooled PBS at 300 μL/well each time, and centrifuged at 500 g for 5 minutes. 1:50 fluorescent secondary antibody APC anti-human IgG or PE anti-human IgG (purchased from Biolegend) was added at 100 μL/well and mixed homogeneously. The plate was incubated at 4° C. for 0.5 hours, washed twice with pre-cooled PBS at 300 μL/well each time, centrifuged at 500 g for 5 minutes, and resuspended in 500 μL of PBS. The average fluorescence signal value was measured by Beckman flow cytometer. The EC50 value was calculated from the average fluorescence signal value.

A549 tumor cells = experiment: Cell affinity assay of anti-B7H3 antibody by FACS, A549; assay type: binding, human; conditions: flow cytometry; middle B7H3-expressing cells
Protocol: as §2

PC-3 tumor cells = experiment: Cell affinity assay of anti-B7H3 antibody by FACS, PC-3; assay type: binding, human; conditions: flow cytometry
Protocol: as §2

[3] = target: B7H3 protein on human tumor cells (MCF-7, A549, PC-3, HT29) (human) (UniProt Q5ZPR3); experiment: flow cytometry on A549 tumor cells
Sequence of B7H3 protein on human tumor cells (MCF-7, A549, PC-3, HT29) (human) (Q5ZPR3 29-534): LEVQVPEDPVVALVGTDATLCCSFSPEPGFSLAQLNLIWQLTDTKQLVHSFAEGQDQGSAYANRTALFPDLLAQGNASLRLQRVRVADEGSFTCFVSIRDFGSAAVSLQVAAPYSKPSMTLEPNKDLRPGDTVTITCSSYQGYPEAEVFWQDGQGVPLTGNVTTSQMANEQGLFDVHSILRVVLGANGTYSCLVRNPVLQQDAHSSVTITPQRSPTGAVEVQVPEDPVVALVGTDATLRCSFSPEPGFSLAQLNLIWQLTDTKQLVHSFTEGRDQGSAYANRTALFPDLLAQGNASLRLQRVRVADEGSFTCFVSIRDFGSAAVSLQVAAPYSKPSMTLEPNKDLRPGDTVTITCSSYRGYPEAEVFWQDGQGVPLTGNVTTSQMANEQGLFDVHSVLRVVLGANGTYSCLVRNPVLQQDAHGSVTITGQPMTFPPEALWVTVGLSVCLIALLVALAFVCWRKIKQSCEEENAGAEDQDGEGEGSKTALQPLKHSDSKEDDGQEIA

[4] = target: B7H3 protein on human tumor cells (MCF-7, A549, PC-3, HT29) (human) (UniProt Q5ZPR3); experiment: flow cytometry on A549 tumor cells; remark: listed apart in the source
[5] = target: B7H3 protein on human tumor cells (MCF-7, A549, PC-3, HT29) (human) (UniProt Q5ZPR3); experiment: flow cytometry on PC-3 tumor cells
[6] = target: B7H3 protein on human tumor cells (MCF-7, A549, PC-3, HT29) (human) (UniProt Q5ZPR3); experiment: flow cytometry on MCF-7 tumor cells
[7] = target: B7H3 protein on human tumor cells (MCF-7, A549, PC-3, HT29) (human) (UniProt Q5ZPR3); experiment: flow cytometry on MCF-7 tumor cells; remark: listed apart in the source
[8] = target: T2, human B7H3-4IgG-His (human) (UniProt Q5ZPR3); experiment: ELISA, antigen coated on the plate, anti-human Fc-HRP detection
T2 sequence: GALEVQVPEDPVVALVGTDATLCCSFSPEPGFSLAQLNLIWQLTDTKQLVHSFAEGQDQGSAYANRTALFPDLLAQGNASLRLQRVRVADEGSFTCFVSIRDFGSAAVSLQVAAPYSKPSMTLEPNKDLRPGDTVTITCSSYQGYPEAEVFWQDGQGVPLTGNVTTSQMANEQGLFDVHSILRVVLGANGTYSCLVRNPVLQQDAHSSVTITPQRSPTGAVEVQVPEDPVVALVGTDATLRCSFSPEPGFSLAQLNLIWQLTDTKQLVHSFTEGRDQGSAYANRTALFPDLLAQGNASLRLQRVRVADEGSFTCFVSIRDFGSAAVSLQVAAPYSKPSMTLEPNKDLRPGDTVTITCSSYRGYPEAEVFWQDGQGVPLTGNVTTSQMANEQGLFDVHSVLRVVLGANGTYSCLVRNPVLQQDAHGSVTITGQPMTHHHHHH

[9] = target: monkey B7H3-4IgG-His (monkey); experiment: as above
[10] = target: T2, human B7H3-4IgG-His (human); experiment: as above; remark: listed apart in the source
[11] = target: monkey B7H3-4IgG-His (monkey); experiment: as above; remark: listed apart in the source

Molecule: C=C1C[C@@H]2CC[C@@]34C[C@H]5O[C@H]6[C@@H](O3)[C@H]3O[C@H](CC[C@@H]3O[C@H]6[C@H]5O4)CC(=O)C[C@@H]3[C@@H](OC)[C@@H](C[C@H](O)CN)O[C@H]3C[C@H]3O[C@@H](CC[C@@H]1O2)C[C@@H](C)C3=C [Eribulin, eribulin]
IC50 (SW480): 1.38 nM
IC50 (A375): 1.14 nM
IC50 (A549): 0.31 nM
IC50 (HT29): 0.2 nM

Molecule: C=C1C[C@@H]2CC[C@@]34C[C@H]5O[C@H]6[C@@H](O3)[C@H]3O[C@H](CC[C@@H]3O[C@H]6[C@H]5O4)CC(=O)C[C@@H]3[C@@H](OC)[C@@H](C[C@H](O)CN)O[C@H]3C[C@H]3O[C@@H](CC[C@@H]1O2)C[C@@H](C)C3=C [Eribulin mesylate]
maximum tolerated dose (MTD) ([1]; intravenous infusion on day 1, 8 and 15 of a 28-day cycle, patients): 1.4 mg/m^2
grade 3-4 adverse events: neutropenia ([1]; patients treated with eribulin mesylate): 64%

Second part, led by results:

EC50 [2]: 0.048 nM
EC50 (MCF-7 tumor cells; high B7H3-expressing cells): 1.71 nM and 1.36 nM
EC50 (A549 tumor cells): 1.86 nM and 1.05 nM
EC50 (PC-3 tumor cells; low B7H3-expressing cells): 0.618 nM
Molecule: B7H3-C1: anti-B7H3 antibody numbered M30-H1-L4 in CN103687945B
MCF-7 tumor cells Maximum MFI (MCF-7 tumor cells): 83992 and 63194
PC-3 tumor cells Maximum MFI (PC-3 tumor cells): 6436

EC50 [3]: 1.86 nM
Maximum MFI [3]: 8270
EC50 [4]: 1.05 nM
Maximum MFI [4]: 48000
EC50 [5]: 0.618 nM
Maximum MFI [5]: 6440
EC50 [6]: 1.71 nM
Maximum MFI [6]: 84000
EC50 [7]: 1.36 nM
Maximum MFI [7]: 63200
EC50 [8]: 0.048 nM
EC50 [9]: 0.167 nM
EC50 [10]: 0.0519 nM
EC50 [11]: 3.92 nM
B1: antibody B7H3-C1 (antibody, INN chains, looked up, V domains shown)
VH: QVQLVQSGAEVKKPGSSVKVSCKASGYTFTNYVMHWVRQAPGQGLEWMGYINPYNDDVKYNEKFKGRVTITADESTSTAYMELSSLRSEDTAVYYCARWGYYGSPLYYFDYWGQGTLVTVSS
VL: EIVLTQSPATLSLSPGERATLSCRASSRLIYMHWYQQKPGQAPRPLIYATSNLASGIPARFSGSGSGTDFTLTISSLEPEDFAVYYCQQWNSNPPTFGQGTKVEIK
